Among the data in paper PMC12410710 are stoichiometry N values, retold here.

The target of this experiment is CsrA (Salmonella Typhimurium) (UniProt P69916). Put plainly: SEC; S75 Superdex column after Ni2+-NTA; SEC buffer 25 mM Tris, 150 mM NaCl, 10% glycerol, 1 mM DTT, pH 7.5; oligomeric state judged from the elution profile. A general note: Size exclusion chromatography separates by hydrodynamic size, large species first.

CsrA, P69916 1-61 (natural protein; other documents disagree on this pair), sequence (P69916 whole entry): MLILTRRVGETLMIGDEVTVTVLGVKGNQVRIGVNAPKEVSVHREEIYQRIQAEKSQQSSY

Usually stoichiometry N stands for a count of units in the complex or per binding partner. “CsrA, P69916 1-61 (natural protein; other documents disagree on this pair)” showed a stoichiometry N of 2.
